From publication PMC5032992

B1: rPoAbf (recombinant α‐L‐arabinofuranosidase from Pleurotus ostreatus) (Pleurotus sp. 'Florida') (protein)
chain: QTVSVSATASHPIPTTLWGQMFEDISHSGDGGLYAELLQNRALQQVTPNTAASLNAWSAINGGQISVVADSVPVSNSLPNSLRFTVPAGRTGQVGFANSGFFGMKIVASSTYKGSFFVKFPTASSFTGNLIVGLRTTSGSTIVSQTVPIRGASTSWQQISVSLTPRTTPPSTDNQFFVTIDGAAASGQTINFAMFSLFPPTFKNRANGMRDDIATALAEMKPKFFRFPGGNNLEGQTVPTRWQWNATIGSLLDRPGRAGDWGYINTDGLGLLEYLLFCEDLGMEPIMAVWAGFALGGTSVAQNGLQPYIQQAIDQINFVIGDPATSAPAARRAALGRAQPFKLTYVEIGNEDFFASDTYTYRWPAFVNALRGAFPNLKFIATSNINSPVLSPNPAQWDHHVYQTPTWFAQNSFFYDDMPRNGVTFFEGEYAAISTNPNDIFGSPANGRLTFSTMQSASGEAAYMIGMERNSDIVFAASYAPLLGHVAGSQWTPNLIAFDTGNVYRSASYFVQKLFSTNMGNEYIPSTLPSRTGTAFWGVTRNTATGEIIIKVSNTVAAQANLTFVLPFANVATSGSLQVLTGAATASNSPTTPSALAPATRTITTGKTFTFAAAGFSVNVITIKAS
B2: rPoAbf (recombinant α‐L‐arabinofuranosidase from Pleurotus ostreatus) (Pleurotus sp. 'Florida'; S160G) (protein)
chain: QTVSVSATASHPIPTTLWGQMFEDISHSGDGGLYAELLQNRALQQVTPNTAASLNAWSAINGGQISVVADSVPVSNSLPNSLRFTVPAGRTGQVGFANSGFFGMKIVASSTYKGSFFVKFPTASSFTGNLIVGLRTTSGGTIVSQTVPIRGASTSWQQISVSLTPRTTPPSTDNQFFVTIDGAAASGQTINFAMFSLFPPTFKNRANGMRDDIATALAEMKPKFFRFPGGNNLEGQTVPTRWQWNATIGSLLDRPGRAGDWGYINTDGLGLLEYLLFCEDLGMEPIMAVWAGFALGGTSVAQNGLQPYIQQAIDQINFVIGDPATSAPAARRAALGRAQPFKLTYVEIGNEDFFASDTYTYRWPAFVNALRGAFPNLKFIATSNINSPVLSPNPAQWDHHVYQTPTWFAQNSFFYDDMPRNGVTFFEGEYAAISTNPNDIFGSPANGRLTFSTMQSASGEAAYMIGMERNSDIVFAASYAPLLGHVAGSQWTPNLIAFDTGNVYRSASYFVQKLFSTNMGNEYIPSTLPSRTGTAFWGVTRNTATGEIIIKVSNTVAAQANLTFVLPFANVATSGSLQVLTGAATASNSPTTPSALAPATRTITTGKTFTFAAAGFSVNVITIKAS

Assays:
purified protein [1] = substrate: O=[N+]([O-])c1ccc(O[C@@H]2O[C@H](CO)[C@@H](O)[C@H](O)[C@H]2O)cc1; experiment: purified protein; conditions: citrate phosphate buffer pH 5, 0.1-6 mM substrate
purified protein [2] = substrate: O=[N+]([O-])c1ccc(O[C@@H]2O[C@@H](CO)[C@H](O)[C@H]2O)cc1; experiment: purified protein; conditions: pH 5.0, 40 °C, 10 min, 0.1-2.0 mM substrate, 40.0 °C

| Protein | Km (purified protein [1]) [µM] | kcat (purified protein [1]) [s⁻¹] | Km (purified protein [2]) [µM] | kcat (purified protein [2]) |
| --- | --- | --- | --- | --- |
| B1 | 4070 ± 150 | 0.183 ± 0.01 | 640 ± 110 | 3,010 ± 145 Min^−1 |
| B2 | 5030 ± 120 | 0.383 ± 0.015 | 890 ± 190 | 2,590 ± 165 Min^−1 |
